Test results as given in patent US5776888A, “Compounds and compositions for delivering active agents” (Emisphere Technologies, Inc., priority 1997, dated 1998).
Like-named read-outs stand apart in the source and are kept apart here.

Parameters: species or system rats
Conditions: rat, in vivo, 1 mg/kg

## interferon
  Mean peak serum interferon concentration: 79±100
po
  Mean peak serum interferon concentration: 1951±1857
